According to patent US10704030B2, “P450-BM3 variants with improved activity” (Codexis, Inc., priority 2015, dated 2020):

Assays:
Assay type in all cases: biochemical
[1] = Validation of generalist properties: oxidation of loratadine by lyophilized P450-BM3 variant, UPLC-MS; settings: [Loratadine] = 1 mM; for TON: TON = [substrate]*% conversion/[P450]; for FIOPC (A05): fold improvement over parent MCYP-1.2-A05
Procedure: (§1) For the production of lyophilized protein powders, LB agar plates supplemented with chloramphenicol (30 μg/mL) were streaked with E. coli containing a desired B. megaterium P450-BM3 variant in an IPTG-inducible vector. The plates were grown at 37° C. for 16 hrs before single clones were selected to inoculate a 15 mL Falcon™ tube (Fisher) containing TB media (3 mL) supplemented with chloramphenicol (30 μg/mL). The tube was shaken at 200 rpm, 30° C., and 85% humidity for 20-24 h to grow the cultures to saturation. Then, 2.5 mL of the overnight culture was used to inoculate sterile 1 L flasks containing TB medium (250 mL) supplemented with chloramphenicol (30 μg/mL), trace element solution (as described above), and 0.05 g/L ammonium iron (III) citrate. After being shaken at 250 rpm, 30° C., and 85% humidity to an OD600 of 0.8-1.2, P450 expression was induced by addition of IPTG (500 uM) and the heme precursor 5-aminolevulinic acid (5-ALA) to a final concentration of 500 uM. The cultures were grown for additional 20-24 hours and centrifuged in pre-weighed 250 mL centrifuge bottles for 20 minutes at 4000 rpm, 4° C. The supernatants were discarded, and the centrifuge bottles containing cell pellets were weighed. The pellets were resuspended in 50 mM potassium phosphate buffer with 2 mM DTT, pH 8.0 (5 mL of buffer per gram of cell pellet). The cells were lysed using a microfluidizer homogenizer, and the suspensions of cells and lysate were collected in sterile 50 mL centrifuge tubes. The samples were centrifuged for 30 minutes at 10,000 rpm, 4° C. The clarified lysate was collected into a plastic petri plate and frozen at −80° C. prior to lyophilization. The enzyme-containing lysates were lyophilized using standard methods known in the art.
(§2) Enzyme stocks (˜12 μM) were prepared by dissolving ˜20 mg of each enzyme in 100 mM potassium phosphate buffer, pH 8.0 (1 mL). The concentration of each enzyme stock solution was determined by the UV-visible absorption spectroscopy (after centrifugation to remove particulates) and diluted to standardize at 12 μM heme protein. Substrate solutions were prepared by dissolving each substrate in DMSO to reach a final concentration of 20 mM or 40 mM. Reaction mix (235 μL) followed by enzyme solution (50 μL) was added to the plates. The substrate stock solution was added to the enzyme solutions (15 μL at the two different concentrations). Each reaction contained 100 mM potassium phosphate, 1.0 mM NADP+, 25 mM glucose, 0.5 mg/mL glucose dehydrogenase, 5% DMSO and substrate at 1 or 2 mM. Loratadine, imatinib, and gefitinib (See, FIG. 1) were selected as substrates in addition to diclofenac to validate improved BM3 variants. The reactions were shaken at 450 rpm at 30° C. over 24 hours. All reactions were diluted with acetonitrile to a final concentration of 0.5 mM substrate. The plates were then centrifuged at 3,000 g for 1 hour at 20° C. The supernatant was diluted 1:1 with acetonitrile, filtered using a 0.4 micron filter, and analyzed by UPLC-MS.
(§3) For UPLC-MS analysis, the quenched and filtered reactions were transferred to 96-well HTP plates for analysis by UPLC on a Waters Acquity H-class system equipped with an autosampler. 1 uL of quenched sample was injected onto an Acquity UPLC HSS T3 column, 100 Å, (1.8 um; 2.1×100 mm). The column was eluted at a constant flow rate of 0.6 mL/min; conditions with solvent A (0.05% trifluoroacetic acid v/v, in H2O) and solvent B (0.05% trifluoroacetic acid v/v, in acetonitrile) used to elute the products of the reaction were: 0-2 min, A/B 95:5; 2-2.9 min, A/B 5:95; 2.9-3 min, A/B 95:5; 3-3.5 min, A/B 95:5. Column eluent was monitored by PDA (200-600 nm) prior to MS analysis in positive ESI mode (desolvation temperature 350° C., 3.25 kV spray voltage, cone voltage 25V). The column eluent was diverted to waste for the first 0.7 minutes of the run. For the remainder of the LC run, both MS (m/z 95-600 scan range) and MS/MS were collected. […]

[2] = Validation of generalist properties: oxidation of diclofenac by lyophilized P450-BM3 variant, UPLC-MS; settings: [Diclofenac] = 1 mM; for TON: TON = [substrate]*% conversion/[P450]; for FIOPC (A05): fold improvement over parent MCYP-1.2-A05
Procedure: as §1, §2, §3

[3] = Validation of generalist properties: oxidation of gefitinib by lyophilized P450-BM3 variant, UPLC-MS; settings: [Gefitinib] = 1 mM; for TON: TON = [substrate]*% conversion/[P450]; for FIOPC (A05): fold improvement over parent MCYP-1.2-A05
Procedure: as §1, §2, §3

[4] = Validation of generalist properties: oxidation of imatinib by lyophilized P450-BM3 variant, UPLC-MS; settings: [Imatinib] = 1 mM; for TON: TON = [substrate]*% conversion/[P450]; for FIOPC (A05): fold improvement over parent MCYP-1.2-A05
Procedure: as §1, §2, §3

Molecule | % Conv. [1] | TON [1] | FIOPC (A05) [1] | % Conv. [2] | TON [2] | FIOPC (A05) [2] | % Conv. [3] | TON [3] | FIOPC (A05) [3] | % Conv. [4] | TON [4] | FIOPC (A05) [4]
Variant 6: P450-BM3 variant of SEQ ID NO: 2: V51S; D118R; L219Y; K236H; P351T; S353T; N579T; T582A; E624D; A632S; D727S; Q931K (protein, P450_BM3, D118R; L219Y; K236H; P351T; S353T; N579T; T582A; E624D; A632S; D727S; Q931K) MLMKQASAIPQPKTYGPLKNLPHLEKEQLSQSLWRIADELGPIFRFDFPGSSSVFVSGHNLVAEVCDEERFDKSIEGALEKVRAFSGDGLATSWTHEPNWRKAHNILMPTFSQRAMKRYHEKMVDIATQLIQKWSRLNPNEEIDVADDMTRLTLDTIGLCGFNYRFNSFYRDQPHPFITSMVRALDEAMNKLQRANPDDPAYDENKRQFQEDIKVMNDYVDSIIAERRANGDQDEHDLLARMLNVEDPETGEKLDDENIRFQIITFLIAGHETTSGLLSFAIYCLLTHPEKLKKAQEEADRVLTDDTPEYKQIQQLKYIRMVLNETLRLYPTAPAFSLYAKEDTVLGGEYTITKGQPVTVLIPKLHRDQNAWGPDAEDFRPERFEDPSSIPHHAYKPFGNGQRACIGMQFALQEATMVLGLVLKHFELINHTGYELKIKEALTIKPDDFKITVKPRKTAAINVQRKEQAEQSAKKVRKKAENAHNTPLLVLYGSNMGTAEGTARDLADIAMSKGFAPQVATLDSHAGNLPREGAVLIVTASYNGHPPDNAKQFVDWLDQASADEVKGVRYSVFGCGDKTWAATYQKVPAFIDETLAAKGAENIADRGEADASDDFEGTYEEWRDHMWSDVASYFNLDIENSEDNKSTLSLQFVDSAADMPLAKMHGAFSTNVVASKELQQPGSARSTRHLEIELPKEASYQEGDHLGVIPRNYEGIVNRVTARFGLSASQQIRLEAEEEKLAHLPLAKTVSVEELLQYVELQDPVTRTQLRAMAAKTVCPPHKVELEALLEKQAYKEQVLAKRLTMLELLEKYPACEMKFSEFIALLPSIRPRYYSISSSPRVDEKQASITVSVVSGEAWSGYGEYKGIASNYLAELQEGDTITCFISTPQSEFTLPKDPETPLIMVGPGTGVAPFRGFVQARKQLKEQGKSLGEAHLYFGCRSPHEDYLYQEELENAQSEGIITLHTAFSRMPNQPKTYVQHVMEQDGKKLIELLDQGAHFYICGDGSQMAPAVEATLMKSYADVHQVSEADARLWLQQLEEKGRYAKDVWAG | ++ (5.01-10.00) | ‡‡ (1001-5000) | **** (10.01-15.00) | ++ (5.01-10.00) | ‡‡ (1001-5000) | **** (10.01-15.00) | + (0-5.00) | ‡ (0-1000) | * (0.0-3.0) | ++++ (15.01-20.00) | ‡‡‡‡ (10000-50000) | * (0.0-3.0)
Variant 7: P450-BM3 variant of SEQ ID NO: 2: V51S; D118R; T179V; L219Y; P351T; N579T; T582A; E624D; D727S (protein, P450_BM3, D118R; T179V; L219Y; P351T; N579T; T582A; E624D; D727S) MLMKQASAIPQPKTYGPLKNLPHLEKEQLSQSLWRIADELGPIFRFDFPGSSSVFVSGHNLVAEVCDEERFDKSIEGALEKVRAFSGDGLATSWTHEPNWRKAHNILMPTFSQRAMKRYHEKMVDIATQLIQKWSRLNPNEEIDVADDMTRLTLDTIGLCGFNYRFNSFYRDQPHPFIVSMVRALDEAMNKLQRANPDDPAYDENKRQFQEDIKVMNDYVDSIIAERRANGDQDEKDLLARMLNVEDPETGEKLDDENIRFQIITFLIAGHETTSGLLSFAIYCLLTHPEKLKKAQEEADRVLTDDTPEYKQIQQLKYIRMVLNETLRLYPTAPAFSLYAKEDTVLGGEYTISKGQPVTVLIPKLHRDQNAWGPDAEDFRPERFEDPSSIPHHAYKPFGNGQRACIGMQFALQEATMVLGLVLKHFELINHTGYELKIKEALTIKPDDFKITVKPRKTAAINVQRKEQAEQSAKKVRKKAENAHNTPLLVLYGSNMGTAEGTARDLADIAMSKGFAPQVATLDSHAGNLPREGAVLIVTASYNGHPPDNAKQFVDWLDQASADEVKGVRYSVFGCGDKTWAATYQKVPAFIDETLAAKGAENIADRGEADASDDFEGTYEEWRDHMWSDVAAYFNLDIENSEDNKSTLSLQFVDSAADMPLAKMHGAFSTNVVASKELQQPGSARSTRHLEIELPKEASYQEGDHLGVIPRNYEGIVNRVTARFGLSASQQIRLEAEEEKLAHLPLAKTVSVEELLQYVELQDPVTRTQLRAMAAKTVCPPHKVELEALLEKQAYKEQVLAKRLTMLELLEKYPACEMKFSEFIALLPSIRPRYYSISSSPRVDEKQASITVSVVSGEAWSGYGEYKGIASNYLAELQEGDTITCFISTPQSEFTLPKDPETPLIMVGPGTGVAPFRGFVQARKQLKEQGQSLGEAHLYFGCRSPHEDYLYQEELENAQSEGIITLHTAFSRMPNQPKTYVQHVMEQDGKKLIELLDQGAHFYICGDGSQMAPAVEATLMKSYADVHQVSEADARLWLQQLEEKGRYAKDVWAG | ++ (5.01-10.00) | ‡‡ (1001-5000) | **** (10.01-15.00) | + (0-5.00) | ‡‡ (1001-5000) | **** (10.01-15.00) | + (0-5.00) | ‡ (0-1000) | * (0.0-3.0) | ++ (5.01-10.00) | ‡‡‡‡ (10000-50000) | ** (3.01-5.0)
